Source: US20220041702A1 (Innovent, published 2022)

How the values were obtained:
[1] = biological target: T1, human OX40-his (human, UniProt P43489 29-216); experiment: ForteBio Octet BLI, antibody on AHC tip, human OX40-His 100 nM in solution, monovalent
T1 construct: Bought soluble protein
T1 sequence (looked up): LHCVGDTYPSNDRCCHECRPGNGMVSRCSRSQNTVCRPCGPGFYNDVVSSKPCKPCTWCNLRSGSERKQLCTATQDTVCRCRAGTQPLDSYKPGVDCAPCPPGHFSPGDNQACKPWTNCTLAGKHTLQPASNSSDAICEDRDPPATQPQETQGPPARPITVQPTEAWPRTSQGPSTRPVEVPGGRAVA
Procedure: A ForteBio affinity assay was performed according to the method reported in the literature (Estep, P, et al., High throughput solution Based measurement of antibody-antigen affinity and epitope binning MAbs, 2013, 5(2): p. 270-278). Briefly, the AHC sensor (Pall, Catalog No.: 1506091) was immersed in a SD buffer (PBS 1×, BSA 0.1%, Tween 20 0.05%) and equilibrated at room temperature, half an hour before the experiment. […] The anti-human IgG Fc biosensor AHC was immersed in each well containing the antibody solution, and immersed at room temperature for 600 s to load the samples. The sensor was then washed in the SD buffer until it returned to the baseline, and then immersed in a well containing 100 μL of the antigen solution to monitor the binding of the antibody to the antigen. The sensor was then transferred to a well containing 100 μL of the SD buffer to monitor the antibody dissociation. The rotation speed was 400 rpm and the temperature was 30° C. The background-corrected association and dissociation curves were fitted by the Octet analysis software (ForteBio) to generate the binding rate constant (kₒₙ) and dissociation rate constant (kdis), which are then used to calculate the equilibrium dissociation constant (KD).

[2] = biological target: T2, human OX40 expressed on the surface of cells (CHO cells overexpressing human OX40) (human, UniProt P43489 29-277); experiment: FACS on CHO-OX40 cells, PE anti-human Fc
T2 construct: whole, on cells; also called CHO-OX40 cells; CHO cells overexpressing OX40
T2 sequence (looked up): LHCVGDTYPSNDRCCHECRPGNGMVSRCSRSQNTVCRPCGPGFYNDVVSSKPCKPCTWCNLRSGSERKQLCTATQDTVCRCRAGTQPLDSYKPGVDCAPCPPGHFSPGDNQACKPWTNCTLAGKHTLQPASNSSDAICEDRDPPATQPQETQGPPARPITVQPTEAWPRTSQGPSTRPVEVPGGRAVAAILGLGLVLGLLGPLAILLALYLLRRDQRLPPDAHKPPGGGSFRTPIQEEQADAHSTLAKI

[3] = biological target: T3, GITR expressed on cell surface (CHO cells overexpressing GITR) (Homo sapiens (Human), UniProt Q9Y5U5 26-241); experiment: FACS on CHO cells overexpressing GITR, PE-conjugated anti-human Fc detection
T3 construct: also called GITR on cell surface
T3 sequence: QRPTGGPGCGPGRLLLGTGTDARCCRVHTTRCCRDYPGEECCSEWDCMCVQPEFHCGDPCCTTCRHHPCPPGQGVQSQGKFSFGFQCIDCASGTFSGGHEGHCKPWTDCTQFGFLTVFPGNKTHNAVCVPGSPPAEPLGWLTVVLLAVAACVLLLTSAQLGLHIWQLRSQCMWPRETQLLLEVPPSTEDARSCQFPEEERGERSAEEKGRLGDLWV

Binder	Kd [1]	koff [1]	kon [1]	EC50 [2]	binding result [3]
anti-OX40 antibody ADI-20112 (antibody, human IgG1, kappa, V domains shown, also called parent anti-OX40 antibody) VH: QVQLVESGGGVVQPGRSLRLSCAASGFTFSSYGMHWVRQAPGKGLEWVAVISYDGSNKYYADSVKGRFTISRDNSKNTLYLQMNSLRAEDTAVYYCARGRPWYSETGTSAFDIWGQGTMVTVSS VL: DIQMTQSPSSLSASVGDRVTITCQASQDISNYLNWYQQKPGKAPKLLIYDASNLETGVPSRFSGSGSGTDFTFTISSLQPEDIATYYCQQSDHYPTFGGGTKVEIKR	215 nM	0.029 s⁻¹	135000 M⁻¹ s⁻¹	2.19 nM	
IgG1 control antibody (antibody, V domains shown, Negative control; also called IgG1 negative control) VH: EVRLLESGGGLVQPGGSLRLSCAASGFTFSNYAMGWVRQAPGKGLEWVSAISGSGGSTYYADSVKGRFTTSRDDSKNALYLQMNSLRAEDTAVYYCARGGPGWYAADVWGQGTTVTVSS VL: DIQMTQSPSSLSASVGDRVTITCRASQSISSYLNWYQQKPGKAPKLLIYAASSLQSGVPSRFSGSGSGTDFTLTISSLQPEDFATYYCQQADLPAFAFGGGTKVEIKR					no binding
